Assay [1] concerns the target FcγRIIIa (CD16a) 158F allele (human) (UniProt P08637).
Another assay concerns the target FcγRI (CD64) (human) (UniProt P12314).
Sequence of UniProt P12314 (P12314 16-374): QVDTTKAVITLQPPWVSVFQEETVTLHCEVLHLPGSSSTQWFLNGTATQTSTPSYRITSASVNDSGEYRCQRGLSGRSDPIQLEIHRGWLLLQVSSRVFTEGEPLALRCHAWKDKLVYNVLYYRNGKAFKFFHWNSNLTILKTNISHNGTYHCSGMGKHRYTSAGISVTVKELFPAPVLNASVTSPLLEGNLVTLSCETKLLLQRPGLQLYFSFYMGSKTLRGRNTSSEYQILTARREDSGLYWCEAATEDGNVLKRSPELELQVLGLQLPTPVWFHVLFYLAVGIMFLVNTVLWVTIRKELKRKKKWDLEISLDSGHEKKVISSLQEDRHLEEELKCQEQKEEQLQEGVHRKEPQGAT

Sequence of UniProt P08637 (P08637 17-254): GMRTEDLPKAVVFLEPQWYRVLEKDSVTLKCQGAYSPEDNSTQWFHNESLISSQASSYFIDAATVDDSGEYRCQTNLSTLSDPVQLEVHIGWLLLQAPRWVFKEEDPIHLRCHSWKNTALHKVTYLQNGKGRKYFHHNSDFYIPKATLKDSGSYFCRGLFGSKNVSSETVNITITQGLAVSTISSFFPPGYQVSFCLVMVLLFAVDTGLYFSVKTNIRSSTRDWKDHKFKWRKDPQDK

“anti-CD20 antibody with rituximab V regions, afucosylated wild-type human IgG1” showed an ADCC activity, Fc effector cell reporter bioassay, relative to wild-type IgG1 in assay [1] of 201 fold.
The substance “anti-CD20 antibody with rituximab V regions, human IgG1 S239D A330L I332E” came in with an ADCP activity, Fc effector cell reporter bioassay, relative to wild-type IgG1 with FcγRI (CD64) (human) of 1.87 fold.

(Values after paper PMC11418285.)
